One data set has as its target T1, RecQL4_N388 (Homo sapiens, UniProt O94761 1-388).
T1 sequence: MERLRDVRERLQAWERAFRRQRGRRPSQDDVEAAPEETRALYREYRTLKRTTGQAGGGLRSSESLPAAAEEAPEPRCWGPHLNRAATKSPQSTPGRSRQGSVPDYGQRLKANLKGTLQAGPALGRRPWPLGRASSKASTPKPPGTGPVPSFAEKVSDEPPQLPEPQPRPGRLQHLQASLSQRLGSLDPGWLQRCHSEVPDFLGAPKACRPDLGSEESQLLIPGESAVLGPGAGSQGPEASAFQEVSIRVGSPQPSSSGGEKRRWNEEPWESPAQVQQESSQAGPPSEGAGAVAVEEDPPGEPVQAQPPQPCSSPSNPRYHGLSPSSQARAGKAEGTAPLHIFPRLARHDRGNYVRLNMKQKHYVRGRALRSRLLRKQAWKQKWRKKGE
The experiment in a line: EMSA. A general note: A gel shift assay detects complexes by their altered migration in electrophoresis.

The target in a further data set is T2, RecQL4_FL (Homo sapiens, UniProt O94761 1-1208).
T2 sequence: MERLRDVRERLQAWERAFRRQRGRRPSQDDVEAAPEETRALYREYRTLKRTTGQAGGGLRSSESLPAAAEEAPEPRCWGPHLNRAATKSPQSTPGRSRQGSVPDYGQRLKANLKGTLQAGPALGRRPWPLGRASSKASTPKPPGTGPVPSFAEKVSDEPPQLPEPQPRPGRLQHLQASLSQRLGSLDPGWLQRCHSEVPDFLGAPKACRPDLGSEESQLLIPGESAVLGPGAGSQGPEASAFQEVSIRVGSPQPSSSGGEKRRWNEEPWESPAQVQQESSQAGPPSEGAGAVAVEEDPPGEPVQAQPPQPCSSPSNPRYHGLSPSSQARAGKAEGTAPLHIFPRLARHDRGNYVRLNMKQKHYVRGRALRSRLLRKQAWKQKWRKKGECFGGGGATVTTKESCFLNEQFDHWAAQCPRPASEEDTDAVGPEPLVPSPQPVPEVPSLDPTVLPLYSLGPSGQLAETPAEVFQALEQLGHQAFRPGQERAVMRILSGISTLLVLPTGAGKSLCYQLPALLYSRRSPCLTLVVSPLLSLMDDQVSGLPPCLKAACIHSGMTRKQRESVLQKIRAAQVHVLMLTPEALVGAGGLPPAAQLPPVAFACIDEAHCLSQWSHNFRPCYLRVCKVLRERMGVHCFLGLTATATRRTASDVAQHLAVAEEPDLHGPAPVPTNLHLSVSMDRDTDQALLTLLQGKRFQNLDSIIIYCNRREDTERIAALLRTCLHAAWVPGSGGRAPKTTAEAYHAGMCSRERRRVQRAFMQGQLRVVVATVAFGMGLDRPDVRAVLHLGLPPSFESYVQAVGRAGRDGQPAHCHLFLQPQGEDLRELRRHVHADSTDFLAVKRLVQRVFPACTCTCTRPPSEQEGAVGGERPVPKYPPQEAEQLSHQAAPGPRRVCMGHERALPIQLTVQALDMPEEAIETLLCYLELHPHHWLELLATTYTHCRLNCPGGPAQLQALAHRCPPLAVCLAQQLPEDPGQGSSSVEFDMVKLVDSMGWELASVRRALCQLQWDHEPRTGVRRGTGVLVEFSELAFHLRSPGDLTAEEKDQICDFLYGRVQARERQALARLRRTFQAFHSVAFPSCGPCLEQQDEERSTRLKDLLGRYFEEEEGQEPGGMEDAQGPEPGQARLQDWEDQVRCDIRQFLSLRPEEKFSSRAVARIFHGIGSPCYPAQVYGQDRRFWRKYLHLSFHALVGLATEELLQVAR
The experiment in a line: EMSA.

This note sets out measurements from article PMC4227796.

For GCAGAGGCCCGGCACGAGCTTCCCC (ssDNA) [LB2_GC], the binding result with RecQL4_N388 and in the data set with RecQL4_FL was “binds” in each case.
